The results in this text go back to patent US7122343 (WARF WISCONSIN ALUMNI RESEARCH FOUNDATION, dated 2006).

In this test the target is T1, hMre11-hRad50 protein complex (human, UniProt P49959 2-708; Q92878 1-1312).
T1 construct: Endogenous complex from human cells; It also holds p95 and a protein of about 400 kDa; also called hMre11/hRad50 complex; hRad50/hMre11 complex
The test is described as follows: co-immunoprecipitation.

T1 sequence (P49959 2-708 limits assumed, chain 1 of 2): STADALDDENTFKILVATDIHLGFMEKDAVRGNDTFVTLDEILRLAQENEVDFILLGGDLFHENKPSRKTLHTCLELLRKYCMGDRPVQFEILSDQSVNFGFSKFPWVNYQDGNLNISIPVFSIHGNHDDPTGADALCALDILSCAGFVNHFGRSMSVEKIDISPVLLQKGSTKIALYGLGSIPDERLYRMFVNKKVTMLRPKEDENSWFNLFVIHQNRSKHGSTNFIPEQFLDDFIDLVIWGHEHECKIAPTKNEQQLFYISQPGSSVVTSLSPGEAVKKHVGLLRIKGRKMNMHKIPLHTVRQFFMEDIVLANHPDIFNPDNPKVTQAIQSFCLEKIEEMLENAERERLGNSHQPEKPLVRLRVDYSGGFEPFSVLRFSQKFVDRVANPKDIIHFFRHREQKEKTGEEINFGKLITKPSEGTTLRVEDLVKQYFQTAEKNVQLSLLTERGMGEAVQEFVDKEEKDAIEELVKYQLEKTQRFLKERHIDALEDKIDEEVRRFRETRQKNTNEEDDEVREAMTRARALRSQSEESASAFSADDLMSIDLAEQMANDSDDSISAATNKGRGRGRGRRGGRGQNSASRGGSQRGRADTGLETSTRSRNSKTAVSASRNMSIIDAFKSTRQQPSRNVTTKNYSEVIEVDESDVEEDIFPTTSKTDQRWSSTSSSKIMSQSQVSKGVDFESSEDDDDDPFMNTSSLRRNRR
T1 sequence (Q92878 whole entry, chain 2 of 2): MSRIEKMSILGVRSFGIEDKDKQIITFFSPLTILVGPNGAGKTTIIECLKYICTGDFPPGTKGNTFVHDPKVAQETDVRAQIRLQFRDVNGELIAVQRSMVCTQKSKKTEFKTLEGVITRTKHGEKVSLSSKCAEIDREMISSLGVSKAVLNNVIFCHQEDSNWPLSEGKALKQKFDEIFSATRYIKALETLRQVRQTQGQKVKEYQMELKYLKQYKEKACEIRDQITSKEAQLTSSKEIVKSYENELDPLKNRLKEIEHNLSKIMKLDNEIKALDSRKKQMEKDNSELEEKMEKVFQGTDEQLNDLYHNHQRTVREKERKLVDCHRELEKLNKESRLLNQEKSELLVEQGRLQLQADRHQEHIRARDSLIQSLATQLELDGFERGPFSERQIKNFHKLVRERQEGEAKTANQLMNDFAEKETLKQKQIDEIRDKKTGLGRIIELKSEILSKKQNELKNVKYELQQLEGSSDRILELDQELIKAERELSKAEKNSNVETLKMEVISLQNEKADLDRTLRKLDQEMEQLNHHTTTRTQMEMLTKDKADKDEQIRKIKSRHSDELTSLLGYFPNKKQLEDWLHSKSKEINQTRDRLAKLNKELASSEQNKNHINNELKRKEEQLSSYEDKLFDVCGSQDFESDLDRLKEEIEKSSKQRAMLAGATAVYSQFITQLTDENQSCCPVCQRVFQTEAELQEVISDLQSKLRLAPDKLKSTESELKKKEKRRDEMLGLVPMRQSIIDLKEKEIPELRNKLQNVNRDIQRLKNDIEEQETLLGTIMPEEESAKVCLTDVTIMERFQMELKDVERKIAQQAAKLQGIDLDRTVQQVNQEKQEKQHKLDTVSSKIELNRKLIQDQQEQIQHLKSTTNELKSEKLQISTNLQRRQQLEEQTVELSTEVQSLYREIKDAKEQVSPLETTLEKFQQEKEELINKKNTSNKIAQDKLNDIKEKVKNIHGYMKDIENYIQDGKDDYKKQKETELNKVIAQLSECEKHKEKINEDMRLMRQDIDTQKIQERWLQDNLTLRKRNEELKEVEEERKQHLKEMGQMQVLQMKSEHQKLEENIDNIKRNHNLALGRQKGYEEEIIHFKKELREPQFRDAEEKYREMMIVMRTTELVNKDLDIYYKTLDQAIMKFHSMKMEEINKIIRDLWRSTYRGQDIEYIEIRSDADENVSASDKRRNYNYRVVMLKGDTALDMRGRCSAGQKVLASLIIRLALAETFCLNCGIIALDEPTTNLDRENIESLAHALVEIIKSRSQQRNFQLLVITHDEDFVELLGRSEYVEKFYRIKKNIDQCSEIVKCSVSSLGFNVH

B1: hRad51 (other, human, UniProt Q06609 2-339, looked up)
chain: AMQMQLEANADTSVEEESFGPQPISRLEQCGINANDVKKLEEAGFHTVEAVAYAPKKELINIKGISEAKADKILAEAAKLVPMGFTTATEFHQRRSEIIQITTGSKELDKLLQGGIETGSITEMFGEFRTGKTQICHTLAVTCQLPIDRGGGEGKAMYIDTEGTFRPERLLAVAERYGLSGSDVLDNVAYARAFNTDHQTQLLYQASAMMVESRYALLIVDSATALYRTDYSGRGELSARQMHLARFLRMLLRLADEFGVAVVITNQVVAQVDGAAMFAADPKKPIGGNIIAHASTTRLYLRKGRGETRICKIYDSPCLPEAEAMFAINADGVGDAKD
notes: also called human Rad51 homolog
In the case of B1, the binding result is “no binding”.
